Tests used:
[1] = biological target: T1, immune complex of #2B with sPLA2-GIB (human, UniProt P04054 23-148); experiment: flow cytometry, antibody-antigen immune complex on CHO cells expressing the receptor
T1 construct: also called immune complexe of #2B; antibody-antigen immune complex
Method: (§1) Antibody-antigen immune complex were generated by co-incubation of 10 µg/ml of humanized antibodies and 5 μg/ml of sPLA2-GIB for 30 min at 37° C. Immune complexes were then incubated with 1×10⁵ CHO cells stably expressing human FcγRs for 30 min on ice. The cells were then washed, detached, fixed, and analyzed by flow cytometry (FACSCalibur; BD Biosciences).
(§2) The binding of monomeric #2B, #2B1 and #2B2 to human FcγRs was tested by flow cytometry by incubating the mAbs with CHO cells stably expressing human FcγRI, FcγRIIA (H131), FcγRIIA(R131), FcγRIIB, FcγRIIIA(F176), FcγRIIIA(V176), FcγRIIIB(NA1), FcγRIIIB(NA2), and FcγRIIIB(SH), (REF P. Bruhns). As presented in FIG. 9, #2B is binding to hFcγRI and hFcγRIIIA(V176) only, whereas no monomeric binding of #2B1 and #2B2 to all tested hFcγRs was observed. Antibody-antigen immune complex was tested by first incubating the mAb with the antigen and then, incubating the immune complexes formed with CHO cells stably expressing human FcγRs. The immune complexe of #2B is binding to all tested hFcγRs, except hFcγRIIB (FIG. 10). Weak binding is observed for immune complex of #2B1 to hFcγRIIIA(V176) (data not shown), whereas no immune complex binding of #2B2 to any tested hFcγRs (data not shown).

[2] = biological target: immune complex of #2B2 with sPLA2-GIB (human, UniProt P04054 23-148); experiment: as above
Sequence of immune complex of #2B2 with sPLA2-GIB (heavy, as listed by the source, chain 1 of 3): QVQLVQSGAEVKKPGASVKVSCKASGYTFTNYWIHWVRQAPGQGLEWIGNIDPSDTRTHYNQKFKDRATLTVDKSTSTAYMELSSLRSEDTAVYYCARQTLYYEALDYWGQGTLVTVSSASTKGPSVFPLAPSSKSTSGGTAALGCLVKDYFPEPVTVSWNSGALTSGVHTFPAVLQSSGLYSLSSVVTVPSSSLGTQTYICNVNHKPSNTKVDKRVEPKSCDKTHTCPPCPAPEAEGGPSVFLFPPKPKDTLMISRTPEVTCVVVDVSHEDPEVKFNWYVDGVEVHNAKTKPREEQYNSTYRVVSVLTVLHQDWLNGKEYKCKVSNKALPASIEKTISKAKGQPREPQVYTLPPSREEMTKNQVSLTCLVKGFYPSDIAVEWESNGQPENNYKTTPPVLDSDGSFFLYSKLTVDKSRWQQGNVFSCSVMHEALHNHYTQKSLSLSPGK
Sequence of immune complex of #2B2 with sPLA2-GIB (light, as listed by the source, chain 2 of 3): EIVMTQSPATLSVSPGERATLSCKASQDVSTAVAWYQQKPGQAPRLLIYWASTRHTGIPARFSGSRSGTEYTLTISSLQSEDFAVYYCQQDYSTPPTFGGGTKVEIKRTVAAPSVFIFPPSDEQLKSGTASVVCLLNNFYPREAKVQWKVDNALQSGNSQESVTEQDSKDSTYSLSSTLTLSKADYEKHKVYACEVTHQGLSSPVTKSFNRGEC
Sequence of immune complex of #2B2 with sPLA2-GIB (P04054 23-148, chain 3 of 3): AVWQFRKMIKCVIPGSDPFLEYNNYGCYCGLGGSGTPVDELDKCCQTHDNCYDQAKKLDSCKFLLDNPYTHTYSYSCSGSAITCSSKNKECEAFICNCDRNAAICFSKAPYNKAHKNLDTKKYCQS
Method: as §1, §2

[3] = biological target: T2, recombinant human sPLA2-GIB (mature secreted group IB pancreatic phospholipase A2) (human, UniProt P04054 23-148); experiment: cell-based or functional assay
T2 sequence (P04054 23-148): as the sequence (P04054 23-148, chain 3 of 3) above

[4] = biological target: T3, recombinant human pro-sPLA2-GIB (human, UniProt P04054 16-148); experiment: SPR (BIAcore 2000), antibody captured on anti-mouse IgG surface, antigen in solution
T3 construct: also called pro-sPLA2-IB; proPLA2-GIB
T3 sequence (P04054 16-148): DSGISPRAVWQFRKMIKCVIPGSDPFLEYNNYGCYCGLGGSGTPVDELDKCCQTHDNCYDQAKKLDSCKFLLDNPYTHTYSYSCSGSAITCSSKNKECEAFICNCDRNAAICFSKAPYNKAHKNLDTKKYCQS
Method: (§3) The affinity constants (KD) of the pro-sPLA2-IB and sPLA2-IB binding to the #14G9 antibody were determined by surface kinetics on a real-time biosensor surface plasmon resonance assay (BIAcore™). More specifically, the affinity of the antibodies for human pro-sPLA2-IB and sPLA2-IB was measured using a BIAcore® 2000. The antibody was captured on an anti-mouse IgG surface and exposed to various concentrations of recombinant pro-sPLA2-IB and sPLA2-IB protein. Kinetic analysis using BIAevaluation™ software was performed to obtain the association and dissociation rate constants.

[5] = biological target: T2, recombinant human sPLA2-GIB (mature …); experiment: as above
Method: as §3

[6] = biological target: T3, recombinant human pro-sPLA2-GIB; experiment: indirect ELISA: antigen coated on the plate, #14G9 mAb titrated (x axis mAb, Log M, -9.5 to -6.5), OD450 nm readout; the curve reaches only OD450 about 1.6 at the highest concentration, no upper plateau
Method: (§4) Microplate wells were typically coated with 100 ng of recombinant human sPLA2-X, sPLA2-IB or pro-sPLA2-IB in PBS pH 7.5, overnight at 4° C. Sample wells were washed three times with PBS containing 0.05% Tween 20. After final washing, sample wells were treated with blocking solution containing 1% bovine serum albumin (BSA) in PBS buffer for 60 min at room temperature. Following washing with PBS containing 0.05% Tween 20, increasing amounts (10 ng/mL up to 3 μg/mL) of #14G9 mAb were added to antigen-coated wells. and incubated for 120 min at room temperature. Following washing with PBS containing 0.05% Tween 20, the binding of #14G9 mAb was detected with an HRP-conjugated goat anti-mouse IgG or IgA polyclonal antibody reagent and developed using colorimetric substrate. The dependency of the signals on the concentrations of antigen in solution was analyzed with a 4-parameter fit analysis using Prism™ software (Graph Pad) and reported as EC50.

[7] = biological target: T2, recombinant human sPLA2-GIB (mature …); experiment: indirect ELISA: antigen coated on the plate, #14G9 mAb titrated (x axis mAb, Log M, -9.5 to -6.5), OD450 nm readout
Method: as §4

[8] = biological target: T3, recombinant human pro-sPLA2-GIB; experiment: competitive ELISA: constant antibody premixed with dilutions of soluble antigen, free antibody caught on antigen-coated plate
Method: (§5) Binding affinities of the antibodies to pro-sPLA2-IB and sPLA2-IB were measured by plate-based competition immunoassay. For the competition ELISA, briefly, constant amounts of antibody at different levels were premixed with serial dilutions of antigen protein, human sPLA2-IB or pro-sPLA2-IB, ranging from 0 to 10 µg/ml, and incubated for two hours at room temperature to reach pseudo-binding equilibrium between the antibody and antigen. These solutions were then transferred to 96-well sPLA2-IB or pro-sPLA2-IB pre-coated plates to allow the free-antibody in the mixtures to bind to plate-coated sPLA2-IB or pro-sPLA2-IB. The plates were typically coated with 30 to 100 ng of human sPLA2-IB or pro-sPLA2-IB protein in PBS solution overnight at 4° C. followed by BSA nonspecific blocking. After washing off excess antibody in solution, plate-bound antibodies were detected with an HRP-conjugated goat anti-mouse IgG or IgA polyclonal antibody reagent and developed using colorimetric substrate. The dependency of the signals on the concentrations of antigen in solution was analyzed with a 4-parameter fit analysis using Prism™ software (Graph Pad) and reported as IC50.

[9] = biological target: T2, recombinant human sPLA2-GIB (mature …); experiment: as above
Method: as §5

T1 sequence (heavy, as listed by the source, chain 1 of 3): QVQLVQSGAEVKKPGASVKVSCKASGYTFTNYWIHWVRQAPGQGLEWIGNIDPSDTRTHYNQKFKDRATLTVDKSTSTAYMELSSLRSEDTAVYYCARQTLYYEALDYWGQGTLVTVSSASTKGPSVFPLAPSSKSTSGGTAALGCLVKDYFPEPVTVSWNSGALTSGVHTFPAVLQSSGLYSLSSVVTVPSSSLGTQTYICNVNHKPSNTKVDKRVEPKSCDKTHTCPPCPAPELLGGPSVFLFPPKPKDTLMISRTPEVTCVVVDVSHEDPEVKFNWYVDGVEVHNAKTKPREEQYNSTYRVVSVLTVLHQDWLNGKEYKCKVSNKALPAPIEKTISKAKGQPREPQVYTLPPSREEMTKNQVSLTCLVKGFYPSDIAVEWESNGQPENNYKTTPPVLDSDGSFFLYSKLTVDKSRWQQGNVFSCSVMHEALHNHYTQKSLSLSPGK
T1 sequence (light, as listed by the source, chain 2 of 3): as the sequence (light, as listed by the source, chain 2 of 3) above
T1 sequence (P04054 23-148, chain 3 of 3): as the sequence (P04054 23-148, chain 3 of 3) above

B1: human FcγRIIB (receptor, UniProt P31994 43-310, looked up)
chain: TPAAPPKAVLKLEPQWINVLQEDSVTLTCRGTHSPESDSIQWFHNGNLIPTHTQPSYRFKANNNDSGEYTCQTGQTSLSDPVHLTVLSEWLVLQTPHLEFQEGETIVLRCHSWKDKPLVKVTFFQNGKSKKFSRSDPNFSIPQANHSHSGDYHCTGNIGYTLYSSKPVTITVQAPSSSPMGIIVAVVTGIAVAAIVAAVVALIYCRKKRISALPGYPECREMGETLPEKPANPTNPDEADKVGAENTITYSLLMHPDALEEPDDQNRI
notes: whole, on cells; also called hFcγRIIB
B1: no binding [1]; no binding [2].

B2: #14G9 mAb (mouse anti-sPLA2-GIB monoclonal antibody) (antibody, V domains shown)
VH: QVQLQQPGAELVKPGASVKLSCKASGYTFTNYWIHWVKRRPGQGLEWIGNIDPSDTRTHYNQKFKDKATLAVDKSSSTAYMQLSSLTSEDSAVFYCARQTLYYEALDYWGQGTTLTVSS
VL: DIVMTQSHKLMSTSVGDRVSITCKASQDVSTAVAWYQEKPGQSPKLLIYWASTRHTGVPNRFTGSRSGTDYTLTISSVQAEDLALYYCQQDYSTPPTFGAGTKLELKR
notes: Mouse hybridoma antibody; also called monoclonal antibody 14G9
For B2, the “EC50 for the restoration of the sPLA2-IB effect on IL-7 induced phosphoSTAT5 nuclear translocation in human CD4 T cells (75 nM sPLA2-GIB)” value [3] was 2.2 ng/mL, the “inhibition of sPLA2-IB enzymatic activity, EC50” value [3] was 2.3 nM and the Kd [4] was 174 nM. It also gave a Kd [5] of 0.34 nM, an EC50 [6] of 158 nM and an EC50 [7] of 6 nM. It also gave an IC50 [8] of 109 nM and an IC50 [9] of 1 nM.

Source: patent US20210047432A1 (DIACCURATE, published 2021)
